The nature of this data set: protein stability index of a GFP-peptide fusion (GPS, HEK-293T) (PSI 1-6); higher = more stable. As to conditions: c terminus: a fixed tail appended.

± gives the standard deviation.
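Also: 24-mer peptide tiles fused after GFP, lentivirally expressed, FACS-sorted into six equal bins by GFP/DsRed ratio, decoded by Illumina sequencing, PSI is the read-weighted mean bin number.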

On to NYRIMSYFKEAELKDLLLQVGRGL [WEE1], for which the protein stability index reads like this: (treatment: DMSO) 2.46 ± 0.87; (treatment: MLN4924 1 uM, 8 h) 2.15 ± 0.4. In the case of PAATMAVELHYEEGSPRNLGTPTS [C2CD2L], the protein stability index came to 4.4 ± 0.17 (treatment: DMSO) and 4.52 ± 0.2 (treatment: MLN4924 1 uM, 8 h). As for PAGAEYCSSARHPAWGHCFYRLYQ [SCNN1D], the protein stability index runs as follows: (treatment: DMSO) 2.08 ± 0.38; (treatment: MLN4924 1 uM, 8 h) 2.68 ± 0.35. The matching figures for PAIIFEDANLDECIPATVRSSFAN [ALDH8A1]: 3.69 ± 0.15 and 3.72 ± 0.2. As for PASTPSVLSSEQEFQMFPKSRLSS [ETS2], the protein stability index was 4.57 ± 0.21 (treatment: DMSO) and 4.57 ± 0.24 (treatment: MLN4924 1 uM, 8 h).

As for PDPPVNFLRQKVLSLPLPDPLKYY [PCMTD2], the protein stability index is, setting by setting: (treatment: DMSO) 2.85 ± 0.13; (treatment: MLN4924 1 uM, 8 h) 2.93 ± 0.079. Consider PDSHQKRPQHSHSNKKRPSLDGRD [ELOA2], for which the protein stability index was 5.33 ± 0.17 (treatment: DMSO) and 5.14 ± 0.21 (treatment: MLN4924 1 uM, 8 h).

In turn, PEKEYQRQVWLLFEYPESSGPARV [KCNA1] registered a protein stability index (treatment: DMSO) of 2.59 ± 0.29 and a protein stability index (treatment: MLN4924 1 uM, 8 h) of 2.06 ± 0.33. Regarding PEKRTQYFDPLRNEYFFDRNRPSF [KCNA4], the protein stability index by setting is: (treatment: DMSO) 2.74 ± 0.25; (treatment: MLN4924 1 uM, 8 h) 3.03 ± 0.13. In the same order, the values of PESQFPEFSTSLFSGSLEPVACGS [SRPK2] are 4.21 ± 0.26 and 4.29 ± 0.064.

For the sequence PFHDSDPSALFSKIRRGQFCIPEH [TRIB1], the protein stability index reads like this: (treatment: DMSO) 3.13 ± 0.25; (treatment: MLN4924 1 uM, 8 h) 3.12 ± 0.44. For PGFSTLSLADQMSLLQSAWMEILI [ESRRG], the protein stability index by setting is: (treatment: DMSO) 2.27 ± 0.88; (treatment: MLN4924 1 uM, 8 h) 2.29 ± 0.4. Sequence PGRSSVASPRRLSNVSSSGSINLL [MAP2] registered a protein stability index (treatment: DMSO) of 3.63 ± 0.16 and a protein stability index (treatment: MLN4924 1 uM, 8 h) of 3.48 ± 0.16. Turning to PHWLDKWMLTRKQFGLLSFFFAVL [STEAP1], the protein stability index (treatment: DMSO) stood at 2.27 ± 0.28 and the protein stability index (treatment: MLN4924 1 uM, 8 h) amounted to 2.26 ± 0.38. With PIMAKEGQLYAMELQGFWMDIGQP [GMPPB], the protein stability index came to 2.23 ± 0.25 (treatment: DMSO) and 2.14 ± 0.31 (treatment: MLN4924 1 uM, 8 h). For PKEPAPPNGSAAEPPTEAASREEN [PALM], the protein stability index turned out to be 5.57 ± 0.25 (treatment: DMSO) and 5.37 ± 0.43 (treatment: MLN4924 1 uM, 8 h). In the same order, the values of PKGLDDESKDYLSLYLLLVSCPKS [SPOPL] are 2.34 ± 0.38 and 2.95 ± 0.69. Turning to PLFMAAFDGRHSQTLKAMVQAWPF [PRAME], the protein stability index (treatment: DMSO) was found to be 2.16 ± 0.13 and the protein stability index (treatment: MLN4924 1 uM, 8 h) came out at 2.07 ± 0.31. PLSDKGTTPLQLAIIRERSSCVKI [ASB7]: the protein stability index reads like this: (treatment: DMSO) 2.64 ± 0.22; (treatment: MLN4924 1 uM, 8 h) 2.81 ± 0.4.

On to PLTEQEESSPSHDRSRTVSASSTG [SRPK2], for which the protein stability index turned out to be 5.25 ± 0.28 (treatment: DMSO) and 5.51 ± 0.23 (treatment: MLN4924 1 uM, 8 h). PLTLQSQPKEPQLTCDSAQKCHSI [ZSCAN9] returned a protein stability index (treatment: DMSO) of 4.36 ± 0.29 and a protein stability index (treatment: MLN4924 1 uM, 8 h) of 4.39 ± 0.15. On to PLVKKHCDDSFTPQEKLWQQLRRG [CPOX], for which the protein stability index was 3.49 ± 0.21 (treatment: DMSO) and 3.57 ± 0.2 (treatment: MLN4924 1 uM, 8 h). For the sequence PLWQCYLGRFNDINVPIRLECVKF [PDS5B], the protein stability index reads like this: (treatment: DMSO) 2.46 ± 0.54; (treatment: MLN4924 1 uM, 8 h) 2.35 ± 0.28. PNFVKDLEEDLYELFKKDPGFDRG [PI4K2A]: the protein stability index reads like this: (treatment: DMSO) 3.79 ± 0.081; (treatment: MLN4924 1 uM, 8 h) 3.72 ± 0.32. In the same order, the values of PNVLCSMSGKSPVESSLNVKTKKN [FBXO34] are 4.84 ± 0.29 and 4.9 ± 0.1. Take PPATLGEGSADTEDRKLPAPGADV [EHMT1]: the protein stability index is, setting by setting: (treatment: DMSO) 5.47 ± 0.3; (treatment: MLN4924 1 uM, 8 h) 5.58 ± 0.13. For the sequence PPLWAASAAGHLKVVQSLLNHGAS [FEM1C], the protein stability index is, setting by setting: (treatment: DMSO) 2.58 ± 0.43; (treatment: MLN4924 1 uM, 8 h) 2.76 ± 0.23. In turn, PPQPGCPAFIIVKLSPLRDRLVVT [ZSWIM9] came in with a protein stability index (treatment: DMSO) of 2.93 ± 1 and a protein stability index (treatment: MLN4924 1 uM, 8 h) of 2.99 ± 0.94. As to PPTPGRPSLGPALSTGPRGLCAMP [VENTX], the protein stability index was 3.86 ± 0.37 (treatment: DMSO) and 3.73 ± 0.26 (treatment: MLN4924 1 uM, 8 h). Take PQLKKESELPFVPNYLANPAFPFI [ANKRD40]: the protein stability index runs as follows: (treatment: DMSO) 2.82 ± 0.34; (treatment: MLN4924 1 uM, 8 h) 2.87 ± 0.085. Consider PRESTDFSSSSQEAFAASAVGSGE [ZBTB22], for which the protein stability index is, setting by setting: (treatment: DMSO) 5.22 ± 0.26; (treatment: MLN4924 1 uM, 8 h) 5.31 ± 0.27. Sequence PRIEASKVLLCHGELRSKSGHKLY [NET1] displayed a protein stability index (treatment: DMSO) of 2.64 ± 0.46 and a protein stability index (treatment: MLN4924 1 uM, 8 h) of 2.81 ± 0.34. The sequence PRLSQLSVTDVTTSSLRLNWEAPP [TNXB] had a protein stability index (treatment: DMSO) of 3.5 ± 0.4. In turn, PRRKKLKSTSKYIYQTLFLNGENS [GMCL1] displayed a protein stability index (treatment: DMSO) of 2.69 ± 0.17 and a protein stability index (treatment: MLN4924 1 uM, 8 h) of 2.79 ± 0.16.

The sequence PSITRKRRYVASVSLHDRIYVIGG [KLHL12] had a protein stability index (treatment: DMSO) of 2.24 ± 0.26 and a protein stability index (treatment: MLN4924 1 uM, 8 h) of 2.13 ± 0.4. Turning to PSLEAGNPAPAAPCPLGEPKTQAC [MYCL], the protein stability index by setting is: (treatment: DMSO) 5.26 ± 0.14; (treatment: MLN4924 1 uM, 8 h) 5.32 ± 0.11. The matching figures for PSRVHASEVESAVWYVKKFGRYLE [FBXO39]: 2.42 ± 0.16 and 2.27 ± 0.5. As for PSSGPVTPQPTALTFAKSSWARQE [AUP1], the protein stability index is, setting by setting: (treatment: DMSO) 4.2 ± 0.29; (treatment: MLN4924 1 uM, 8 h) 4.27 ± 0.24. PTGPRRGRDELGGGRRPGTSPALL [CDKN1A]: the protein stability index (treatment: DMSO) was 4.624 ± 0.031 and the protein stability index (treatment: MLN4924 1 uM, 8 h) is 4.53 ± 0.061. In the same order, the values of PTPPGQYFYPRGGGSGGGAGGAGG [JUNB] are 4.81 ± 0.15 and 4.5 ± 0.16. In the case of PTPQVDELDILPIHPPSGNSDLDP [BTBD10], the protein stability index amounted to 5.54 ± 0.097 (treatment: DMSO) and 5.39 ± 0.35 (treatment: MLN4924 1 uM, 8 h). For the sequence PVDLNKILEDMRCQYEALVENNRR [KRT36], the protein stability index is, setting by setting: (treatment: DMSO) 3.31 ± 0.3; (treatment: MLN4924 1 uM, 8 h) 3.23 ± 0.36.

With PVHTTILNPHIHLMGDESACIAYI [CAMK2A], the protein stability index by setting is: (treatment: DMSO) 2.42 ± 0.17; (treatment: MLN4924 1 uM, 8 h) 2.42 ± 0.082.

On to PVLSGAELEKAHLALIDYLTQKRS [VPS39], for which the protein stability index amounted to 3.37 ± 0.26 (treatment: DMSO) and 3.38 ± 0.27 (treatment: MLN4924 1 uM, 8 h).

PWLRQDPMPLAPTRSHLWEAAQVV [TRIB3]: the protein stability index by setting is: (treatment: DMSO) 2.5 ± 0.18; (treatment: MLN4924 1 uM, 8 h) 2.27 ± 0.29. In the same order, the values of PWNCILLTKDEAAAHLKLTSIEEG [IQUB] are 3.12 ± 0.1 and 3.44 ± 0.07.

Turning to PYKCVQPDCGKAFVSRYKLMRHMA [PLAGL1], the protein stability index by setting is: (treatment: DMSO) 2.23 ± 0.31; (treatment: MLN4924 1 uM, 8 h) 2.08 ± 0.21. For PYSKTLVLQTSEGKALQQYPSERE [TRIM9], the protein stability index runs as follows: (treatment: DMSO) 4.63 ± 0.088; (treatment: MLN4924 1 uM, 8 h) 4.66 ± 0.21.

The sequence QASAAPAAPLPERNSLSAIFNNVM [SLC29A1] registered a protein stability index (treatment: DMSO) of 3.55 ± 0.094 and a protein stability index (treatment: MLN4924 1 uM, 8 h) of 3.5 ± 0.14.

As to QAVCGKCSSKRSSYPVMGFEFQVR [WDFY1], the protein stability index turned out to be 2.16 ± 0.23 (treatment: DMSO) and 2.34 ± 0.44 (treatment: MLN4924 1 uM, 8 h). Regarding QAWFGFAGTPGYLSPEVLRKEAYG [CAMK2B], the protein stability index runs as follows: (treatment: DMSO) 2.55 ± 0.22; (treatment: MLN4924 1 uM, 8 h) 2.76 ± 0.22.

Consider QCCQTEIIELRRTVNALEIELQAQ [KRT36], for which the protein stability index is, setting by setting: (treatment: DMSO) 2.95 ± 0.49; (treatment: MLN4924 1 uM, 8 h) 2.76 ± 0.4. On to QDGSESFFFRHGHRGLLTMQLKSP [SPAG8], for which the protein stability index was determined as 2.96 ± 0.3 (treatment: DMSO) and 3.03 ± 0.35 (treatment: MLN4924 1 uM, 8 h).

The values are drawn from the supplement of paper PMC10567573.
